Here are results for six molecules from patent US20150140001A1 (Scripps Research, published 2015).

In experiment [1] the target is T1, recombinant mouse clec14a CTLD Fc fusion protein (mCTLD-Fc) (mouse; human, UniProt Q8VCP9 31-172).
T1 construct: also called mouse CTLD-Fc; not shown: hinge and CH2-CH3 domain of human IgG1, encoded 3' of the cloning site of the modified pCEP4 vector
T1 sequence: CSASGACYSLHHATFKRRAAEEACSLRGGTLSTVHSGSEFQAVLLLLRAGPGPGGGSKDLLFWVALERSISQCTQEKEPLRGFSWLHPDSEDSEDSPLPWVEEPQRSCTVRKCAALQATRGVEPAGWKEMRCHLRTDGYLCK
In words: ELISA, coated mCTLD-Fc (25 nM), 67 nM IgG. On the procedure:
(§1) 25 nM recombinant hCTLD-Fc, mCTLD-Fc, or Fc fragment of IgG1 in PBS was added to the 96-wells of a microtiter plate. After incubation overnight at 37° C., plates were washed three times with PBS containing 0.05% (v/v) Tween 20 (PBST), and incubated with 3% (w/v) BSA in PBST for 1 hr at 37° C. Plates were then incubated with 67 nM clec14a-CTLD IgG in PBST containing 3% (w/v) BSA for 3 hr at 37° C. Plates were washed twice with PBST and incubated with horseradish […] (HRP)-conjugated anti-human lambda light chain antibody (Bethyl Laboratories, Montgomery, Tex., USA) diluted 1:1000) in PBST containing 3% (w/v) BSA, for 1 hr at 37° C.
In general terms: ELISA stands for enzyme-linked immunosorbent assay.

Experiment [2] addresses T2, fusion protein comprising an amino acid fragment from 1st amino acid to 42nd amino acid in hCTLD (human, UniProt Q86T13 31-72).
T2 construct: also called N-terminal fragment of hCTLD-Fc (1-42); not shown: Fc
T2 chain: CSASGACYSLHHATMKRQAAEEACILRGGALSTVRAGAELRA
In words: epitope mapping ELISA, coated fragment-Fc 10 µg/ml, IgG 10 µg/ml. As to the method:
Each of 10 μg/ml hCTLD-Fc, Fc, or N-terminal or C-terminal fragments of hCTLD-Fc in PBS was added to 96-well plates. Plates were incubated overnight at 37° C., washed three times with PBS containing 0.05% (v/v) Tween 20 (PBST), and incubated with 3% (w/v) BSA in PBST for 1 hr at 37° C. Plates were incubated with 10 μg/ml clec14a-CTLD IgG in PBST containing 3% (w/v) BSA for 2 hr at 37° C. Following two times washings with PBST, horseradish […] (HRP)-conjugated anti-human lambda light chain antibody (1:1000; Bethyl Laboratories, TX, USA) in PBST containing 3% (w/v) BSA was incubated for 1 hr at 37° C.
For fine mapping of epitope, specificity of clec14a-CTLD IgGs to Clec14awtCTLD and the fragments of hCTLD-Fc (FIG. 10a) were tested by ELISA.

Experiment [3] addresses T3, recombinant human clec14a CTLD Fc fusion protein (hCTLD-Fc) (human, UniProt Q86T13 31-172).
T3 construct: also called human CTLD-Fc; wtCTLD-Fc; not shown: hinge and CH2-CH3 domain of human IgG1, encoded 3' of the cloning site of the modified pCEP4 vector
T3 sequence: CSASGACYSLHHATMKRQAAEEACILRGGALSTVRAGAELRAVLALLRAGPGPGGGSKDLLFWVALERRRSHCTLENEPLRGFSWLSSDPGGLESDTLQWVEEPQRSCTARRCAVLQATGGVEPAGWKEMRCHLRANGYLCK
In words: phage enzyme immunoassay (phage ELISA) on hCTLD-Fc. As to the method:
(§2) A human synthetic scFv antibody library was precleared of Fc binders and screened by alternative biopanning with recombinant hCTLD-Fc or mCTLD-Fc. b-d. Ninety-six phage clones (1-96) displaying scFv were randomly selected and the supernatants were analyzed by phage ELISA. Reactivity of the selected scFv clones to human and mouse CTLDs was assayed by measuring absorbance at 450 nm. Arrows indicate scFv clones reactive to hCTLD-Fc (▪, black) and mCTLD-Fc (▪, grey), and not reactive to Fc (□). BSA ( ) served as a background control.
Three rounds of biopanning were carried out with immunotubes (Immuno™ tube maxisorp, Nunc, Rochester, N.Y., USA) or magnetic beads (Dynabeads M-270 epoxy, Invitrogen) coated with 4 μg recombinant human (hCTLD-Fc) or mouse (mCTLD-Fc) fusion protein to select clones with cross-species reactivity, as described previously (Barbas C F. Phage display: a laboratory manual. Cold Spring Harbor, N.Y.: Cold Spring Harbor Laboratory Press; 2001; Vestweber D. Lymphocyte trafficking through blood and lymphatic vessels: more than just selectins, chemokines and integrins. European Journal of Immunology. 2003; 33(5):1361-4). Ninety-six phage clones were randomly selected from colonies grown on output plates and tested for reactivity to human and mouse CTLDs by phage enzyme immunoassay. […]

Experiment [4] deals with T1, recombinant mouse clec14a CTLD Fc …. The experiment is described as follows: phage enzyme immunoassay (phage ELISA) on mCTLD-Fc. As to the method: as §2
Three rounds of biopanning were carried out with immunotubes (Immuno™ tube maxisorp, Nunc, Rochester, N.Y., USA) or magnetic beads (Dynabeads M-270 epoxy, Invitrogen) coated with 4 μg recombinant human (hCTLD-Fc) or mouse (mCTLD-Fc) fusion protein to select clones with cross-species reactivity, as described previously (Barbas C F. Phage display: a laboratory manual. Cold Spring Harbor, N.Y.: Cold Spring Harbor Laboratory Press; 2001; Vestweber D. Lymphocyte trafficking through blood and lymphatic vessels: more than just selectins, chemokines and integrins. European Journal of Immunology. 2003; 33(5):1361-4). Ninety-six phage clones were randomly selected from colonies grown on output plates and tested for reactivity to human and mouse CTLDs by phage enzyme immunoassay. DNA of the final scFv clones was sequenced and classified as four scFv clones identified having different complementarity determining region sequences.

For experiment [5], the target named is T3, recombinant human clec14a CTLD Fc …. The experiment is described as follows: ELISA, coated hCTLD-Fc (25 nM), 67 nM IgG. As to the method: as §1

Residue numbers refer to the chain shown, from its start.

B1: clec14a-CTLD IgG clone 1 (antibody, V domains shown)
VH: EVQLLESGGGLVQPGGSLRLSCAASGFTFSGYDMSWVRQAPGKGLEWVSGIYPDGGNTYYADSVKGRFTISRDNSKNTLYLQMNSLRAEDTAVYYCARGATWWVLGPFDYWGQGTLVTVSS
VL: QSVLTQPPSASGTPGQRVTISCTGSSSNIGNNSVTWYQQLPGTAPKLLIYADSHRPSGVPDRFSGSKSGTSASLAISGLRSEDEADYYCGAWDDSLSGYVFGGGTKLTVL
notes: scFv converted to IgG; Lambda light chain, detected with anti-human lambda antibody
As for B1, the binding result in experiment [1] and in experiment [2] was “binds” in each case.

B2: clec14a-CTLD IgG clone 2 (antibody, V domains shown)
VH: EVQLLESGGGLVQPGGSLRLSCAASGFTFSSYDMSWVRQAPGKGLEWVSVISPDSSSTYYADSVKGRFTISRDNSKNTLHLQMNSLRAEDTAVYYCARHTGWQSRPHTYYDYGMDVWGQGTLVTVSS
VL: B1 VL with T23S, S33A, A51S, S53N, A91T, D94A
notes: Lambda light chain
In the case of B2, the binding result in experiment [1] and in experiment [2] was “binds” in each case.

B3: scFv clone 3 (phage-displayed) (scFv, V domains shown)
VH: EVQLLESGGGLVQPGGSLRLSCAASGFTFSDYYMSWVRQAPGKGLEWVSLISYDGGSTYYADSVKGRFTISRDNSKNTLYLQMNSLRAEDTAVYYCARSNDWFDYWGQGTLVTVSS
VL: B1 VL with T23S, N31S, S33N, T35Y, A51Y, H54Q, G98A
Consider B3, for which the binding result in experiment [3] and in experiment [4] was “binds” in each case.

B4: scFv clone 1 (phage-displayed) (scFv, V domains shown)
VH: B1 VH
VL: B1 VL
On to B4, for which the binding result in experiment [4] is “binds”.

B5: scFv clone 2 (phage-displayed) (scFv, V domains shown)
VH: B2 VH
VL: B1 VL with T23S, S33A, A51S, S53N, A91T, D94A
Regarding B5, the binding result in experiment [4] is reported as “binds”.

B6: clec14a-CTLD IgG clone 3 (antibody, V domains shown)
VH: B3 VH
VL: B1 VL with T23S, N31S, S33N, T35Y, A51Y, H54Q, G98A
notes: Lambda light chain
As for B6, the binding result in experiment [1] and in experiment [5] was “binds” each time.
